Values of other authors, collected in article PMC5245780.
pKd: −log10 of the molar value.

Target: Hax1 isoform 1 (Rattus norvegicus) (UniProt Q7TSE9)

## Hax1 isoform 1 (from UniProt Q7TSE9)
  pKd: 8.42
